Laboratory results: the supplement of paper PMC9876800

System: peptide library, one residue held at a place counted from the S/T acceptor
Experiment: relative phosphorylation of the sub-library (ratio to the mean residue at this position); higher = residue favoured
Conditions: human
How it was run: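 In 384-well plates, purified recombinant kinases (human or orthologue constructs) were incubated for 90 min under kinase-specific conditions with 50 μM biotinylated degenerate peptide sub-libraries and 50 μM ATP spiked with γ-32P-ATP. Each sub-library fixed a single residue at one position around a central Ser/Thr. Relative sub-library phosphorylation, measured by phosphorimaging and densitometry of streptavidin membrane spots, is given as a ratio to the mean residue at that position.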

ULK2, construct: aa1-478, sequence (Q8IYT8 1-478, looked up): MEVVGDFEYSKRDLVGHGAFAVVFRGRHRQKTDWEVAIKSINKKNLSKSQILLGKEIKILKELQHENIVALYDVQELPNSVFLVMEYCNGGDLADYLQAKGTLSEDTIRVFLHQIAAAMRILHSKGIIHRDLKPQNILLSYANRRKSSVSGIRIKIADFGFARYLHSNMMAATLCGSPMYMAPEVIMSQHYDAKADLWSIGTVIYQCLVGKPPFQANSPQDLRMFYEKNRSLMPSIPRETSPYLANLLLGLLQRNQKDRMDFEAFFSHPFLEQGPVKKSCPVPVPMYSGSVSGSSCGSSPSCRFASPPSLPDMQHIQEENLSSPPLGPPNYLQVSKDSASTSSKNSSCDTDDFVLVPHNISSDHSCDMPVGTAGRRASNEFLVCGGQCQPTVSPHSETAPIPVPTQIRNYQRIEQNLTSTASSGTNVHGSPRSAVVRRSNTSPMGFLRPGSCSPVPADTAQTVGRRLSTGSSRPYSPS

ULK2, construct: aa1-478 (from UniProt Q8IYT8)
relative phosphorylation
Conditions | at +1 | at +2 | at +3 | at +4 | at -1 | at -2 | at -3 | at -4 | at -5
A fixed | 0.728 | 0.707 | 0.906 | 0.969 | 1.08 | 1.11 | 0.982 | 1.31 | 1.38
D fixed | 0.31 | 0.349 | 0.794 | 0.811 | 1.04 | 1.1 | 0.736 | 1.16 | 1.29
E fixed | 0.365 | 0.348 | 0.775 | 0.701 | 0.927 | 1.05 | 0.599 | 0.953 | 1.08
F fixed | 1.4 | 0.962 | 0.824 | 0.652 | 0.63 | 1.14 | 0.873 | 0.616 | 0.704
G fixed | 0.631 | 0.582 | 1.39 | 1.28 | 1.09 | 1.12 | 1.24 | 1.47 | 1.23
H fixed | 0.927 | 1.62 | 1.19 | 1.17 | 0.923 | 1.31 | 0.774 | 1.05 | 1.11
I fixed | 1.49 | 1.03 | 0.872 | 0.796 | 0.637 | 0.728 | 0.739 | 0.685 | 0.679
K fixed | 0.863 | 1.09 | 1.51 | 1.43 | 1.53 | 0.703 | 0.63 | 0.968 | 1.21
L fixed | 1.07 | 0.851 | 0.858 | 0.831 | 0.788 | 0.843 | 1.54 | 0.738 | 0.748
M fixed | 1.78 | 1.08 | 0.867 | 0.938 | 1.11 | 1.11 | 2.88 | 0.946 | 0.705
N fixed | 0.665 | 0.848 | 0.895 | 1.02 | 1.12 | 1.18 | 1.12 | 1.24 | 1.16
P fixed | 0.167 | 0.441 | 0.832 | 1.28 | 0.567 | 0.492 | 0.774 | 1.19 | 1.01
Q fixed | 1.37 | 0.846 | 0.932 | 1.01 | 1.4 | 0.965 | 0.955 | 0.91 | 0.995
R fixed | 1.05 | 1.59 | 1.37 | 1.28 | 1.48 | 0.655 | 0.693 | 0.965 | 1.1
V fixed | 1.53 | 1.02 | 0.945 | 0.863 | 1.02 | 0.774 | 0.808 | 0.748 | 0.815
W fixed | 1.14 | 1.6 | 1.02 | 1.11 | 0.814 | 1.6 | 1.02 | 1.3 | 1.02
Y fixed | 1.51 | 2.04 | 1.02 | 0.854 | 0.85 | 1.12 | 0.652 | 0.761 | 0.754
pThr fixed | 0.659 | 0.378 | 0.594 | 0.749 | 0.557 | 0.6 | 0.707 | 0.833 | 0.782
pTyr fixed | 0.882 | 0.714 | 0.817 | 0.647 | 0.923 | 1.04 | 0.619 | 0.547 | 0.707
